Results from PMC9482650, “Quantitative fragmentomics allow affinity mapping of interactomes” (Nature Communications, 2022).

T1: PDZD4, Q76G19
T1 sequence (Q76G19 125-224, limits assumed, looked up): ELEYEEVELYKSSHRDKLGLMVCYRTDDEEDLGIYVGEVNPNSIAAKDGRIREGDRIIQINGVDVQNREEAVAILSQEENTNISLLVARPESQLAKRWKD

T2: GRIP1_1, Q9Y3R0
T2 sequence (Q9Y3R0 48-146, limits assumed, looked up): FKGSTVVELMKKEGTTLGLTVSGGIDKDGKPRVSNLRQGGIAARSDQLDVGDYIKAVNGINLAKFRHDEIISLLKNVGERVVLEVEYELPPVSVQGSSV

T3: PREX2_2, Q70Z35
T3 sequence (Q70Z35 672-764, limits assumed, looked up): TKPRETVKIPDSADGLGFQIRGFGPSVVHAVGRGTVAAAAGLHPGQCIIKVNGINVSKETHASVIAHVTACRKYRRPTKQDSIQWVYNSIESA

T4: MPDZ_6, O75970
T4 sequence (O75970 1003-1099, limits assumed, looked up): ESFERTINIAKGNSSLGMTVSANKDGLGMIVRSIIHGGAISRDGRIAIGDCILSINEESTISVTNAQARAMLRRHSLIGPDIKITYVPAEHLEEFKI

T5: MPDZ_2, O75970
T5 sequence (O75970 252-347, limits assumed, looked up): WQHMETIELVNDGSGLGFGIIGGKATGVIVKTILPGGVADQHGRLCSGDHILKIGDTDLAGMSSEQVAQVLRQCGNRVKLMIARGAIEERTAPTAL

T6: SHROOM4, Q9ULL8
T6 sequence (Q9ULL8 5-102, limits assumed, looked up): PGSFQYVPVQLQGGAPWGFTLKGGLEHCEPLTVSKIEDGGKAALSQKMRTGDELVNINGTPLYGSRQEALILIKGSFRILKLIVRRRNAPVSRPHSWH

T7: USH1C_3, Q9Y6N9
T7 sequence (Q9Y6N9 447-547, limits assumed, looked up): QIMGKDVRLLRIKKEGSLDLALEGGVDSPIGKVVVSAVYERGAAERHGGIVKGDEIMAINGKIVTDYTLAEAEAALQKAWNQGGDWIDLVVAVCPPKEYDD

T8: PARD6B, Q9BYG5
T8 sequence (Q9BYG5 152-260, limits assumed, looked up): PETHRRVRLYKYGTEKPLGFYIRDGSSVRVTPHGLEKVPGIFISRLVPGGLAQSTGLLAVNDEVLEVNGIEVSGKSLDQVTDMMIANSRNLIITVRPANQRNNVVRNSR

T9: PDZD2_5, O15018
T9 sequence (O15018 2617-2716, limits assumed, looked up): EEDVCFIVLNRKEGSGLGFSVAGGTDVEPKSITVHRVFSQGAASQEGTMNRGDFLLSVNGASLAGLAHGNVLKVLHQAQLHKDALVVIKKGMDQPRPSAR

T10: MPP5, Q8N3R9
T10 sequence (Q8N3R9 251-346, limits assumed, looked up): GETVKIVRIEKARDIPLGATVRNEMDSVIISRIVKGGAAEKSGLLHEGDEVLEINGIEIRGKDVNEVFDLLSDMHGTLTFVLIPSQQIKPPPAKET

T11: SHANK3, Q9BYB0
T11 sequence (Q9BYB0 641-750, limits assumed, looked up): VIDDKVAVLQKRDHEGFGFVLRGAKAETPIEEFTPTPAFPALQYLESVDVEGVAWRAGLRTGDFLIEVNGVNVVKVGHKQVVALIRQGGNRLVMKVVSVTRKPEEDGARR


Legend:
Experiment in all cases: holdup assay
Parameters in all cases: key: below the threshold = too weak to quantify, mostly under pKd 3.1 to 4
Conditions in all cases: plain residues with an end cap or a label only (N-terminal biotin on a linker: ttds)
[1] = biological target: PDLIM1, O00151
Sequence of PDLIM1, O00151 (O00151 1-87): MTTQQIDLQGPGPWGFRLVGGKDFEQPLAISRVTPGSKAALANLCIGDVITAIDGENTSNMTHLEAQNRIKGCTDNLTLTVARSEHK

[2] = biological target: CARD14, Q9BXL6
Sequence of CARD14, Q9BXL6 (Q9BXL6 558-663): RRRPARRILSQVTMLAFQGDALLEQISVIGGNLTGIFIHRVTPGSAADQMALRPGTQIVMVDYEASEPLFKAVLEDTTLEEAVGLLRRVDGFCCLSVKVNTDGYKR

[3] = biological target: T1, PDZD4, Q76G19
[4] = biological target: T2, GRIP1_1, Q9Y3R0
[5] = biological target: PREX1_1, Q8TCU6
Sequence of PREX1_1, Q8TCU6 (Q8TCU6 608-718): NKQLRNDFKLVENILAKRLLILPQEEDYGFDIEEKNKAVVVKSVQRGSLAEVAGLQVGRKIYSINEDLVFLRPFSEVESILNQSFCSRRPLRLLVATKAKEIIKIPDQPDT

[6] = biological target: T3, PREX2_2, Q70Z35
[7] = biological target: MAGI1_5, Q96QZ7
Sequence of MAGI1_5, Q96QZ7 (Q96QZ7 986-1098): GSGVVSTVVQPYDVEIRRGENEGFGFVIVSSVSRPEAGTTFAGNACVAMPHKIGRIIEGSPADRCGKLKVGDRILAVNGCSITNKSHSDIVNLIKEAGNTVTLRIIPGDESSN

[8] = biological target: PDZRN4_2, Q6ZMN7
Sequence of PDZRN4_2, Q6ZMN7 (Q6ZMN7 389-498): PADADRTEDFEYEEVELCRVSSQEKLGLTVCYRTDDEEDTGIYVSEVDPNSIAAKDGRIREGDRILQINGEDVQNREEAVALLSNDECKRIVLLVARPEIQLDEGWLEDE

[9] = biological target: DLG5_2, Q8TDM6
Sequence of DLG5_2, Q8TDM6 (Q8TDM6 714-800): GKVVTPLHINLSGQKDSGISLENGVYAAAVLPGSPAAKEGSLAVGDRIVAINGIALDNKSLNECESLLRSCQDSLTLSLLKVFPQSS

[10] = biological target: PDLIM4, P50479
Sequence of PDLIM4, P50479 (P50479 1-83): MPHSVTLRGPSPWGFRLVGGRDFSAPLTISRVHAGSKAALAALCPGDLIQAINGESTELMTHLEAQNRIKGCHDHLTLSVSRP

[11] = biological target: T4, MPDZ_6, O75970
[12] = biological target: T5, MPDZ_2, O75970
[13] = biological target: T6, SHROOM4, Q9ULL8
[14] = biological target: MAST3, O60307
Sequence of MAST3, O60307 (O60307 945-1048): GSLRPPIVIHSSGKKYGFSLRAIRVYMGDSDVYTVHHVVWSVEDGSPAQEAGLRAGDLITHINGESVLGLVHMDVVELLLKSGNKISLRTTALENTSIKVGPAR

[15] = biological target: AHNAK2, Q8IVF2
Sequence of AHNAK2, Q8IVF2 (Q8IVF2 108-193): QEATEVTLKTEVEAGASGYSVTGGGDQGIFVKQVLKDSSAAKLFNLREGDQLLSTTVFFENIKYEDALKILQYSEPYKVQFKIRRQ

[16] = biological target: T7, USH1C_3, Q9Y6N9
[17] = biological target: Inadl_7, Q8NI35
Sequence of Inadl_7, Q8NI35 (Q8NI35 1219-1332): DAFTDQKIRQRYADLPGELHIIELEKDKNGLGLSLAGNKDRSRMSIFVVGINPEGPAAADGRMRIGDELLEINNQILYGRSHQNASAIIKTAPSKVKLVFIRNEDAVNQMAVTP

[18] = biological target: T8, PARD6B, Q9BYG5
[19] = biological target: T9, PDZD2_5, O15018
[20] = biological target: T10, MPP5, Q8N3R9
[21] = biological target: SCRIB_3, Q14160
Sequence of SCRIB_3, Q14160 (Q14160 999-1103): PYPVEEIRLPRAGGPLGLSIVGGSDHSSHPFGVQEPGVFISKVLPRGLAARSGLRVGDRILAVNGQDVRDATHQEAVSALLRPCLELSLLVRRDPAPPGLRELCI

[22] = biological target: MAGI3_3, Q5TCQ9
Sequence of MAGI3_3, Q5TCQ9 (Q5TCQ9 572-655): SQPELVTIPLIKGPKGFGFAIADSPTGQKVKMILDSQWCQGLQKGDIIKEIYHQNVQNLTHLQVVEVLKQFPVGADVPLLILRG

[23] = biological target: T11, SHANK3, Q9BYB0
[24] = biological target: MAGI1_3, Q96QZ7
Sequence of MAGI1_3, Q96QZ7 (Q96QZ7 638-725): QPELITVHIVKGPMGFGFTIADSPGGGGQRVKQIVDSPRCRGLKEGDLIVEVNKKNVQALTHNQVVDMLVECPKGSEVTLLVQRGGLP

[25] = biological target: GIPC3, Q8TF64
Sequence of GIPC3, Q8TF64 (Q8TF64 107-202): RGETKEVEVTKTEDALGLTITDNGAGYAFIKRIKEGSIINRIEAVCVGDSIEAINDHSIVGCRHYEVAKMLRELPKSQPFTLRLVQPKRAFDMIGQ

[26] = biological target: Inadl_10, Q8NI35
Sequence of Inadl_10, Q8NI35 (Q8NI35 1673-1763): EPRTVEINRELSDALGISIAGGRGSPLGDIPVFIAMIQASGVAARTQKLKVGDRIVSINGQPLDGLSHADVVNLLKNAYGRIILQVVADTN

Binder | pKd [1] | pKd [2] | pKd [3] | pKd [4] | pKd [5] | pKd [6] | pKd [7] | pKd [8] | pKd [9] | pKd [10] | pKd [11] | pKd [12] | pKd [13] | pKd [14] | pKd [15] | pKd [16] | pKd [17] | pKd [18] | pKd [19] | pKd [20] | other results
PPRQRSETQV [HPV82-E6, Q9IR59] | below the threshold | below the threshold | below the threshold | below the threshold | below the threshold | below the threshold | 4.37 | below the threshold | below the threshold | below the threshold | below the threshold | below the threshold | below the threshold | below the threshold | below the threshold | below the threshold | below the threshold | below the threshold | below the threshold | below the threshold | pKd [21]: 4.05; pKd [22]: below the threshold; pKd [23]: below the threshold; pKd [24]: 4.28; pKd [25]: below the threshold; pKd [26]: below the threshold
SSIDLWETAL [SLC15A5, A6NIM6] | 4.22 | below the threshold | below the threshold | below the threshold | below the threshold | below the threshold | 5.82 | below the threshold | below the threshold | below the threshold | below the threshold | below the threshold | below the threshold | 4.91 | below the threshold | below the threshold | below the threshold | below the threshold | below the threshold | below the threshold | pKd [21]: 5.71; pKd [22]: below the threshold; pKd [23]: 6.63; pKd [24]: below the threshold; pKd [25]: below the threshold; pKd [26]: 4.17
KLVIKTETTV [RASSF6, Q6ZTQ3] | below the threshold | below the threshold | below the threshold | below the threshold | 4.1 | below the threshold | 4.23 | below the threshold | 4.33 | 4.09 | below the threshold | below the threshold | below the threshold | below the threshold | below the threshold | below the threshold | 4.51 | below the threshold | below the threshold | below the threshold | pKd [21]: 4.3; pKd [22]: below the threshold; pKd [23]: below the threshold; pKd [24]: 4.32; pKd [25]: below the threshold; pKd [26]: below the threshold
SRSRRRETAL [HPV33-E6, P06427] | below the threshold | below the threshold | below the threshold | below the threshold | below the threshold | below the threshold | below the threshold | below the threshold | 4.78 | below the threshold | below the threshold | below the threshold | below the threshold | below the threshold | below the threshold | below the threshold | below the threshold | below the threshold | below the threshold | below the threshold | pKd [21]: 5.3; pKd [22]: below the threshold; pKd [23]: below the threshold; pKd [24]: below the threshold; pKd [25]: below the threshold; pKd [26]: below the threshold
SHSSKGETAV [FZD7, O75084] | below the threshold | below the threshold | below the threshold | below the threshold | below the threshold | 4.3 | below the threshold | below the threshold | below the threshold | below the threshold | below the threshold | below the threshold | below the threshold | below the threshold | 4.41 | below the threshold | 4.99 | below the threshold | below the threshold | below the threshold | pKd [21]: 4.78; pKd [22]: 4.54; pKd [23]: below the threshold; pKd [24]: below the threshold; pKd [25]: below the threshold; pKd [26]: below the threshold
